# Reference: patent publication US20240035010, “COMPOSITIONS COMPRISING A VARIANT POLYPEPTIDE AND USES THEREOF” (Arbor Biotechnologies, Inc., published 2024)
# T1: variant nuclease 7 substitutions D590G/E154G/E736G (P14R, D32R, I61R, E311R, D590G, E154G, E736G)
# T1 chain: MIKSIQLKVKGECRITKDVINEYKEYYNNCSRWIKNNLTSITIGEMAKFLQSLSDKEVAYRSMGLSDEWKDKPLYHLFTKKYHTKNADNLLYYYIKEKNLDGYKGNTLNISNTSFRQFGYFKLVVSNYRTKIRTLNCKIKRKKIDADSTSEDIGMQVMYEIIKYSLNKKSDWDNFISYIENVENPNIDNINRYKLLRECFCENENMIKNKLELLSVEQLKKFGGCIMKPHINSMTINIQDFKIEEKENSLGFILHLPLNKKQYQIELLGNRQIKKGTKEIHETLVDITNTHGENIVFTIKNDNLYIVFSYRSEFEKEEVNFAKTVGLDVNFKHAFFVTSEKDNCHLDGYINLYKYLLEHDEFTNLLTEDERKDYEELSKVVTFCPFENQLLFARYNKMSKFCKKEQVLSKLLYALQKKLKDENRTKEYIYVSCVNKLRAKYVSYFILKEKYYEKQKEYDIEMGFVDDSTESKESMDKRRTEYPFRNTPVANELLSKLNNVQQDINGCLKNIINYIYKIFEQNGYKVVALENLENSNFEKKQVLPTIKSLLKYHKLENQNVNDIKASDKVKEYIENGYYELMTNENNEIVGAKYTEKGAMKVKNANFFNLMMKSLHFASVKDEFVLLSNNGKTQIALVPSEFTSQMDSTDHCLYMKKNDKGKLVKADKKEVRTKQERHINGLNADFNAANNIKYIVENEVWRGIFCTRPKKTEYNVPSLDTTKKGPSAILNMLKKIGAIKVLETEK
# T2: variant nuclease D55G/E736G combination (P14R, D32R, I61R, E311R, D55G, E736G)
# T2 chain: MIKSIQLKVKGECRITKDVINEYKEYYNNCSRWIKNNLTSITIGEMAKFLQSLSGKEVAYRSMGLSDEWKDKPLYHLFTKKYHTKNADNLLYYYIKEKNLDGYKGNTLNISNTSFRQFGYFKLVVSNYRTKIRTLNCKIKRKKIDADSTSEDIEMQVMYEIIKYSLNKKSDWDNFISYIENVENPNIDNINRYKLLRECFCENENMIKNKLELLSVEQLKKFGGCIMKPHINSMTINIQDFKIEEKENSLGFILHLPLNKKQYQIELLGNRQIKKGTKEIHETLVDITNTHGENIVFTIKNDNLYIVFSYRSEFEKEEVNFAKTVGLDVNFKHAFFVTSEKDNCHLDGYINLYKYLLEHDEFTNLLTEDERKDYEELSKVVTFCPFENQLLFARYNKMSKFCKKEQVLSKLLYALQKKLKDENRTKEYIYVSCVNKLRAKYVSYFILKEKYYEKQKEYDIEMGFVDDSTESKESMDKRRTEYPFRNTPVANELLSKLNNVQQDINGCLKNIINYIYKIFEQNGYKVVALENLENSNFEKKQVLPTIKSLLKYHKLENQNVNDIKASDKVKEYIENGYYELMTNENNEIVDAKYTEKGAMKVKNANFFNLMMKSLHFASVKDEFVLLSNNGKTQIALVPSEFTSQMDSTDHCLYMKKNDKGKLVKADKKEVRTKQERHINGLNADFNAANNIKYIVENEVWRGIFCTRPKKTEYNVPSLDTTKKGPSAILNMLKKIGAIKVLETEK
# What was measured:
# [1] = biological target: T1, variant nuclease 7 substitutions …; test: cell_activity; PAM 5'-TTTA-3'; settings: tags: pcDNA3.1 expression
# Outline: (§1)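 HEK293T cells were lipofected with nuclease plasmid (pcDNA3.1 backbone) plus RNA guide plasmid, with guide omitted in negative controls. After ~72 h cells were lysed in QuickExtract and % indels were derived from NGS reads, averaged over two bioreplicates and two technical replicates.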
# [2] = biological target: T2, variant nuclease D55G/E736G combination; test: cell_activity; PAM 5'-TTTA-3'; settings: tags: pcDNA3.1 expression
# Outline: as §1
binder,measurement,setting,value
VEGFA crRNA ; VEGFA target (ssRNA ; dsDNA) RNA: CUUGUUGUAUAUGUCCUUUUAUAGGUAUUAAACAACUCCAGACCACCAAUGGGCAC DNA 1: TCCAGACCACCAATGGGCAC DNA 2: GTGCCCATTGGTGGTCTGGA,indel activity,[1],3.13 fold of WT
same,indel activity,[2],3.06 fold of WT
